These results are taken from PMC5461336, “Non-canonical Glucocorticoid Receptor Transactivation of gilz by Alcohol Suppresses Cell Inflammatory Response”.

The series addresses Glucocorticoid receptor (Hu-GR), unliganded (human, UniProt P04150 1-777). Description: EMSA; no glucocorticoid; GR 40 ng (0.5 pmol), probe 0.5 ng (0.05 pmol), 1 ug poly(dI-dC), 25 ul; 6% non-denaturing PAGE; buffer, salt, pH and temperature not stated. Particulars: protein: recombinant; chain copies: 2; label: 32P 5'-end; blunt. (A gel shift assay detects complexes by their altered migration in electrophoresis.)

Glucocorticoid receptor (Hu-GR), unliganded, sequence (P04150 whole entry): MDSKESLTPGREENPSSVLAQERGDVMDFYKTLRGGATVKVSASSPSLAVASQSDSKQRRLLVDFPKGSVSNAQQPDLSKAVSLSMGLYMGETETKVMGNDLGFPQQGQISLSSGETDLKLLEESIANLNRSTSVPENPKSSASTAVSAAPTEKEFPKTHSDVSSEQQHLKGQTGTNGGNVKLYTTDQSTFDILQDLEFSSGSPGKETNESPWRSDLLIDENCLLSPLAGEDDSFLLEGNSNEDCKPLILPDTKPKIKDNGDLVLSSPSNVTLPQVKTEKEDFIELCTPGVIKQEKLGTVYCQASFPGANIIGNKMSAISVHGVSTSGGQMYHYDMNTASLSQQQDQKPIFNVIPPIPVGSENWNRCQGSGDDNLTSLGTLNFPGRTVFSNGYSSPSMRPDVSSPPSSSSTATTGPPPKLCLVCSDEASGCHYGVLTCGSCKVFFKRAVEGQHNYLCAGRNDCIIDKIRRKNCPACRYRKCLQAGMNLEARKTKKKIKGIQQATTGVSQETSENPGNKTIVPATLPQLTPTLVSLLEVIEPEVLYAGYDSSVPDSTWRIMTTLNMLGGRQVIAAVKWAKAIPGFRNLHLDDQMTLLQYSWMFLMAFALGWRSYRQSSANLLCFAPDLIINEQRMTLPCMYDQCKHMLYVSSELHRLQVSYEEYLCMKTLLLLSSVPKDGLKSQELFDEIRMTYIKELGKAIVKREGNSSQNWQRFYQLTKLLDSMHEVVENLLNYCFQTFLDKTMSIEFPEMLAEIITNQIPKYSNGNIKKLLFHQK

B1: Wt-GRE1 (dsDNA)
DNA 1: CAAACTAGCGCTGTTCTTTACTGAATGCCC
DNA 2: GGGCATTCAGTAAAGAACAGCGCTAGTTTG
Consider B1, for which the binding result is recorded as “binds”.

B2: Mut-GRE2 (dsDNA)
DNA 1: GGTGGAACCCAAGAGCACCCTTTGGTCCTG
DNA 2: CAGGACCAAAGGGTGCTCTTGGGTTCCACC
For the molecule B2, the binding result is recorded as “no binding”.

B3: Mut-GRE1 (dsDNA)
DNA 1: CAAACTAGCGCCAGGTCTTTACTGAATGCCC
DNA 2: GGGCATTCAGTAAAGACCTGGCGCTAGTTTG
For the molecule B3, the binding result is given as “no binding”.

B4: Wt-GRE2 (dsDNA)
DNA 1: GGTGGAACCCAATGTTCTCCTTTGGTCCTG
DNA 2: CAGGACCAAAGGAGAACATTGGGTTCCACC
Turning to B4, the binding result is recorded as “binds”.
